The source of these data is paper PMC13397619.

First the molecules themselves.
B1: NLV2 TCR alpha chain (CDR3α only) (parent)
chain: AGPMKTSYDKVI
partner: NLVGMVATV

In the assay the parent is B1. Nature of the assay: T-Switch: Jurkat TCRβ−/− cells expressing a CDR3 saturation-mutagenesis library, stained with two peptide-HLA-A*02:01 tetramers (original and novel peptide) plus anti-CD3, FACS-sorted into four gates, gDNA sequenced. Particulars: with HLA-A*02:01 with peptide … (NLV 2-2, the original bait), tetramers 1 µg/mL, 30 min on ice, DP and SW gates expanded about 10 days between rounds ('two to three rounds of selection' in the Methods), gate SP: higher = more of the variant in the gate that binds the original peptide and not the novel one = retained original binding. Fold enrichment of the CDR3 variant in one FACS gate of a two-tetra, unresolved parent, parent is a CDR3 fragment, scale: fold enrichment, numbering: sequential-on-construct, sequence ….
In the case of […] (CDR3 as printed); D9N derived by comparing it with the table's wild-type CDR3 AGPMKTSYDKVI, the enrichment is 0.

With […] (CDR3 as printed); K5G derived by comparing it with the table's wild-type CDR3 AGPMKTSYDKVI, the enrichment is 12.9.

Regarding […] (CDR3 as printed); M4A derived by comparing it with the table's wild-type CDR3 AGPMKTSYDKVI, the enrichment was 8.93.

Regarding […] (CDR3 as printed); I12L derived by comparing it with the table's wild-type CDR3 AGPMKTSYDKVI, the enrichment came to 0.259.

For the variant […] (CDR3 as printed); Y8R derived by comparing it with the table's wild-type CDR3 AGPMKTSYDKVI, the enrichment was 0.

[…] (CDR3 as printed); S7E derived by comparing it with the table's wild-type CDR3 AGPMKTSYDKVI: the enrichment was 0.

Take […] (CDR3 as printed); S7T derived by comparing it with the table's wild-type CDR3 AGPMKTSYDKVI: the enrichment is 0.

With […] (CDR3 as printed); K10L derived by comparing it with the table's wild-type CDR3 AGPMKTSYDKVI, the enrichment is 0.

[…] (CDR3 as printed); S7Q derived by comparing it with the table's wild-type CDR3 AGPMKTSYDKVI: the enrichment came to 0.

As for […] (CDR3 as printed); K10A derived by comparing it with the table's wild-type CDR3 AGPMKTSYDKVI, the enrichment worked out at 0.

On to […] (CDR3 as printed); K5C derived by comparing it with the table's wild-type CDR3 AGPMKTSYDKVI, for which the enrichment was found to be 0.

Consider […] (CDR3 as printed); P3Y derived by comparing it with the table's wild-type CDR3 AGPMKTSYDKVI, for which the enrichment was 0.

Consider […] (CDR3 as printed); V11Y derived by comparing it with the table's wild-type CDR3 AGPMKTSYDKVI, for which the enrichment was 0.

[…] (CDR3 as printed); D9I derived by comparing it with the table's wild-type CDR3 AGPMKTSYDKVI: the enrichment was 0.

As to […] (CDR3 as printed); I12E derived by comparing it with the table's wild-type CDR3 AGPMKTSYDKVI, the enrichment was determined as 0.34.

On to […] (CDR3 as printed); G2L derived by comparing it with the table's wild-type CDR3 AGPMKTSYDKVI, for which the enrichment came to 0.

Consider […] (CDR3 as printed); A1W derived by comparing it with the table's wild-type CDR3 AGPMKTSYDKVI, for which the enrichment turned out to be 0.

Consider […] (CDR3 as printed); G2M derived by comparing it with the table's wild-type CDR3 AGPMKTSYDKVI, for which the enrichment amounted to 0.715.

[…] (CDR3 as printed); V11E derived by comparing it with the table's wild-type CDR3 AGPMKTSYDKVI: the enrichment was determined as 0.

As to […] (CDR3 as printed); V11L derived by comparing it with the table's wild-type CDR3 AGPMKTSYDKVI, the enrichment worked out at 0.

Regarding […] (CDR3 as printed); G2D derived by comparing it with the table's wild-type CDR3 AGPMKTSYDKVI, the enrichment was 0.

Take […] (CDR3 as printed); G2C derived by comparing it with the table's wild-type CDR3 AGPMKTSYDKVI: the enrichment was determined as 0.

Regarding […] (CDR3 as printed); V11T derived by comparing it with the table's wild-type CDR3 AGPMKTSYDKVI, the enrichment stood at 0.

For […] (CDR3 as printed); Y8T derived by comparing it with the table's wild-type CDR3 AGPMKTSYDKVI, the enrichment amounted to 0.942.

[…] (CDR3 as printed); K5A derived by comparing it with the table's wild-type CDR3 AGPMKTSYDKVI: the enrichment is 23.5.

For the variant […] (CDR3 as printed); S7M derived by comparing it with the table's wild-type CDR3 AGPMKTSYDKVI, the enrichment was determined as 0.

As for […] (CDR3 as printed); G2Q derived by comparing it with the table's wild-type CDR3 AGPMKTSYDKVI, the enrichment turned out to be 0.

As to […] (CDR3 as printed); P3H derived by comparing it with the table's wild-type CDR3 AGPMKTSYDKVI, the enrichment came to 0.

As for […] (CDR3 as printed); Y8D derived by comparing it with the table's wild-type CDR3 AGPMKTSYDKVI, the enrichment was 0.

As for […] (CDR3 as printed); K5R derived by comparing it with the table's wild-type CDR3 AGPMKTSYDKVI, the enrichment was found to be 0.

In the case of […] (CDR3 as printed); K5N derived by comparing it with the table's wild-type CDR3 AGPMKTSYDKVI, the enrichment is 0.

In the case of […] (CDR3 as printed); Y8L derived by comparing it with the table's wild-type CDR3 AGPMKTSYDKVI, the enrichment came to 0.

With […] (CDR3 as printed); K5F derived by comparing it with the table's wild-type CDR3 AGPMKTSYDKVI, the enrichment was determined as 0.

As to […] (CDR3 as printed); G2V derived by comparing it with the table's wild-type CDR3 AGPMKTSYDKVI, the enrichment was 0.

For […] (CDR3 as printed); Y8V derived by comparing it with the table's wild-type CDR3 AGPMKTSYDKVI, the enrichment was 0.

As to […] (CDR3 as printed); T6R derived by comparing it with the table's wild-type CDR3 AGPMKTSYDKVI, the enrichment stood at 0.

Take […] (CDR3 as printed); S7I derived by comparing it with the table's wild-type CDR3 AGPMKTSYDKVI: the enrichment was determined as 0.

On to […] (CDR3 as printed); Y8P derived by comparing it with the table's wild-type CDR3 AGPMKTSYDKVI, for which the enrichment was 0.

As to […] (CDR3 as printed); D9G derived by comparing it with the table's wild-type CDR3 AGPMKTSYDKVI, the enrichment worked out at 0.

As to […] (CDR3 as printed); P3M derived by comparing it with the table's wild-type CDR3 AGPMKTSYDKVI, the enrichment is 0.

Consider […] (CDR3 as printed); G2N derived by comparing it with the table's wild-type CDR3 AGPMKTSYDKVI, for which the enrichment was found to be 0.

Consider […] (CDR3 as printed); M4G derived by comparing it with the table's wild-type CDR3 AGPMKTSYDKVI, for which the enrichment was 0.

Turning to […] (CDR3 as printed); Y8I derived by comparing it with the table's wild-type CDR3 AGPMKTSYDKVI, the enrichment is 0.

With […] (CDR3 as printed); Y8N derived by comparing it with the table's wild-type CDR3 AGPMKTSYDKVI, the enrichment was found to be 0.

In the case of […] (CDR3 as printed); K10M derived by comparing it with the table's wild-type CDR3 AGPMKTSYDKVI, the enrichment is 0.

With […] (CDR3 as printed); S7K derived by comparing it with the table's wild-type CDR3 AGPMKTSYDKVI, the enrichment amounted to 0.

Regarding […] (CDR3 as printed); D9H derived by comparing it with the table's wild-type CDR3 AGPMKTSYDKVI, the enrichment worked out at 0.283.

Turning to […] (CDR3 as printed); Y8G derived by comparing it with the table's wild-type CDR3 AGPMKTSYDKVI, the enrichment turned out to be 0.

For […] (CDR3 as printed); K5D derived by comparing it with the table's wild-type CDR3 AGPMKTSYDKVI, the enrichment came out at 37.8.

With […] (CDR3 as printed); D9F derived by comparing it with the table's wild-type CDR3 AGPMKTSYDKVI, the enrichment worked out at 0.

[…] (CDR3 as printed); M4P derived by comparing it with the table's wild-type CDR3 AGPMKTSYDKVI: the enrichment is 0.

Consider […] (CDR3 as printed); I12S derived by comparing it with the table's wild-type CDR3 AGPMKTSYDKVI, for which the enrichment was determined as 0.

On to […] (CDR3 as printed); S7R derived by comparing it with the table's wild-type CDR3 AGPMKTSYDKVI, for which the enrichment came out at 0.

For the variant […] (CDR3 as printed); G2R derived by comparing it with the table's wild-type CDR3 AGPMKTSYDKVI, the enrichment was found to be 0.

Regarding […] (CDR3 as printed); S7P derived by comparing it with the table's wild-type CDR3 AGPMKTSYDKVI, the enrichment came to 0.

For the variant […] (CDR3 as printed); K10F derived by comparing it with the table's wild-type CDR3 AGPMKTSYDKVI, the enrichment is 0.

Turning to […] (CDR3 as printed); K5V derived by comparing it with the table's wild-type CDR3 AGPMKTSYDKVI, the enrichment was 1.08.

For […] (CDR3 as printed); I12H derived by comparing it with the table's wild-type CDR3 AGPMKTSYDKVI, the enrichment amounted to 0.

For the variant […] (CDR3 as printed); I12T derived by comparing it with the table's wild-type CDR3 AGPMKTSYDKVI, the enrichment is 0.

In the case of […] (CDR3 as printed); Y8A derived by comparing it with the table's wild-type CDR3 AGPMKTSYDKVI, the enrichment was found to be 0.

For the variant […] (CDR3 as printed); G2W derived by comparing it with the table's wild-type CDR3 AGPMKTSYDKVI, the enrichment stood at 0.

Consider […] (CDR3 as printed); Y8E derived by comparing it with the table's wild-type CDR3 AGPMKTSYDKVI, for which the enrichment amounted to 0.105.

Take […] (CDR3 as printed); T6I derived by comparing it with the table's wild-type CDR3 AGPMKTSYDKVI: the enrichment was determined as 9.21.

In the case of […] (CDR3 as printed); M4T derived by comparing it with the table's wild-type CDR3 AGPMKTSYDKVI, the enrichment amounted to 12.4.

On to […] (CDR3 as printed); T6A derived by comparing it with the table's wild-type CDR3 AGPMKTSYDKVI, for which the enrichment was 0.

With […] (CDR3 as printed); Y8K derived by comparing it with the table's wild-type CDR3 AGPMKTSYDKVI, the enrichment is 0.

On to […] (CDR3 as printed); K5E derived by comparing it with the table's wild-type CDR3 AGPMKTSYDKVI, for which the enrichment stood at 21.3.

With […] (CDR3 as printed); A1T derived by comparing it with the table's wild-type CDR3 AGPMKTSYDKVI, the enrichment is 0.262.

Regarding […] (CDR3 as printed); M4W derived by comparing it with the table's wild-type CDR3 AGPMKTSYDKVI, the enrichment stood at 0.

With […] (CDR3 as printed); M4E derived by comparing it with the table's wild-type CDR3 AGPMKTSYDKVI, the enrichment stood at 27.

In the case of […] (CDR3 as printed); K10Y derived by comparing it with the table's wild-type CDR3 AGPMKTSYDKVI, the enrichment was 4.15.

Consider […] (CDR3 as printed); M4C derived by comparing it with the table's wild-type CDR3 AGPMKTSYDKVI, for which the enrichment was 0.

Consider […] (CDR3 as printed); V11S derived by comparing it with the table's wild-type CDR3 AGPMKTSYDKVI, for which the enrichment was determined as 1.91.

Regarding […] (CDR3 as printed); D9P derived by comparing it with the table's wild-type CDR3 AGPMKTSYDKVI, the enrichment is 0.

In the case of […] (CDR3 as printed); Y8Q derived by comparing it with the table's wild-type CDR3 AGPMKTSYDKVI, the enrichment worked out at 0.

Consider […] (CDR3 as printed); K10I derived by comparing it with the table's wild-type CDR3 AGPMKTSYDKVI, for which the enrichment came out at 0.

For the variant […] (CDR3 as printed); M4Q derived by comparing it with the table's wild-type CDR3 AGPMKTSYDKVI, the enrichment was 5.77.

As for […] (CDR3 as printed); T6P derived by comparing it with the table's wild-type CDR3 AGPMKTSYDKVI, the enrichment was 9.39.

As for […] (CDR3 as printed); G2Y derived by comparing it with the table's wild-type CDR3 AGPMKTSYDKVI, the enrichment turned out to be 0.

Turning to […] (CDR3 as printed); G2F derived by comparing it with the table's wild-type CDR3 AGPMKTSYDKVI, the enrichment worked out at 0.

In the case of […] (CDR3 as printed); Y8W derived by comparing it with the table's wild-type CDR3 AGPMKTSYDKVI, the enrichment came to 0.

As for […] (CDR3 as printed); P3F derived by comparing it with the table's wild-type CDR3 AGPMKTSYDKVI, the enrichment was determined as 0.

For […] (CDR3 as printed); V11P derived by comparing it with the table's wild-type CDR3 AGPMKTSYDKVI, the enrichment is 0.
